# Source: patent publication US20230001009A1, “NANOPARTICLE COMPOSITIONS AND METHODS OF USE” (The Trustees of the University of Pennsylvania, priority 2019, published 2023)
# Legend:
# [1] = tested on: neutrophils in LPS-inflamed lungs; conditions: mouse, in vivo, iv
# Description: Mice received IV LPS as a model of sepsis/ARDS and were injected five hours later with liposomes (approx. 5 mg/kg). Lung uptake provides a measure of tropism to marginated neutrophils. D5=5 DBCO per protein (IgG) on the tag. D5=5 DBCO per IgG on the tag. D20=20 per IgG on the tag. 25% chol=25% (moles cholesterol/total moles of lipid) of the lipids in liposomes was cholesterol. 25% cholesterol=25% (moles cholesterol/total moles of lipid) of the lipids in liposomes was cholesterol.
# Radiolabeled clone 1A8 anti-Ly6G antibody was administered to determine the location and concentration of neutrophils in naïve mice and mice exposed to intravenous (IV) lipopolysaccharides (LPS) (FIG. 1A).
# Previous work has traced the neutrophil response to bacteria in the lungs, determining that pulmonary neutrophils pursue and engulf active bacteria following either intravenous infection or infection of the airspace in the lungs. We injected heat-inactivated, oxidized, and fixed E. coli in naïve and IV-LPS-injured mice.
# Neither nanoparticle was functionalized with antibodies or other affinity tags. The protein component of each particle was labeled with ^125I for tracing in biodistributions assessed 30 minutes after IV administration of nanoparticles.
# Variants of LDNG structure, crosslinked protein NP structure, and NP structure based on charged protein interactions were traced in naïve control and IV-LPS-injured mice. As examples of highly crystalline protein-based NPs based on site-specific protein interactions (rather than site-indiscriminate interactions leading to crosslinker, gelation, or charge-based protein NPs), we also traced viruses in naïve and LPS-treated mice. Adding in liposomes and polystyrene NPs as example nanostructures not based on protein, we undertook a study to evaluate how aspects of NP structure including size, composition, surface chemistry, and crystallinity impact NP affinity for LPS-injured lungs.
# ex vivo human lungs = tested on: ex vivo human lungs
# Excerpt: Finally, fluorescent or ^125I-labeled LDNGs were infused via arterial catheter into ex vivo human lungs excluded from organ donation due to conditions (including edema and injury) resembling those found in ARDS patients. Immediately prior to LDNG administration, tissue dye was infused via the same catheter to stain regions of the lungs directly perfused by the chosen branch of the pulmonary artery (FIG. 7C). After infusion of LDNGs, phosphate buffered saline infusion rinsed away unbound particles. Perfused regions of the lungs were dissected and divided into ˜1 g segments, divided into regions deemed to have high, medium, or low levels of staining with tissue dye. For lungs receiving fluorescent LDNGs, well-perfused and poorly-perfused regions were selected for sectioning and fluorescent imaging. Fluorescent signal from LDNGs was clearly detectable in sections of well-perfused tissue, but not poorly-perfused tissue (FIG. 7D). In experiments with ^125I-labeled LDNGs, ^131I-labeled ferritin was concurrently infused (i.e. a mix of ferritin and LDNGs was infused) as an internal control particle shown to have no affinity for injured mouse lungs. For LDNGs and ferritin infused into the same lungs via the same branch of the pulmonary artery, LDNGs retained in the lungs at 52.15% initial dose and ferritin retained at 9.27% initial dose (FIG. 7E). […]
Substance,"Lung uptake, percent of initial dose [1] [% initial dose]",LPS:naïve lung uptake ratio [1],Retained in the lungs (ex vivo human lungs) [% initial dose]
transferrin: isolated radiolabeled protein,1.45,,
lysozyme: isolated radiolabeled protein,1.34,,
bovine albumin: isolated radiolabeled protein,1.38,,
ferritin,0.68,1.15,9.27
